Test results as given in patent US20230038638A1, “COMPLEMENT FACTOR I-RELATED COMPOSITIONS AND METHODS” (published 2023).
Residue numbers refer to the chain shown, from its start.

Legend:
[1] = molecular target: T1, human C4b (human) (UniProt P0C0L5)
T1 sequence: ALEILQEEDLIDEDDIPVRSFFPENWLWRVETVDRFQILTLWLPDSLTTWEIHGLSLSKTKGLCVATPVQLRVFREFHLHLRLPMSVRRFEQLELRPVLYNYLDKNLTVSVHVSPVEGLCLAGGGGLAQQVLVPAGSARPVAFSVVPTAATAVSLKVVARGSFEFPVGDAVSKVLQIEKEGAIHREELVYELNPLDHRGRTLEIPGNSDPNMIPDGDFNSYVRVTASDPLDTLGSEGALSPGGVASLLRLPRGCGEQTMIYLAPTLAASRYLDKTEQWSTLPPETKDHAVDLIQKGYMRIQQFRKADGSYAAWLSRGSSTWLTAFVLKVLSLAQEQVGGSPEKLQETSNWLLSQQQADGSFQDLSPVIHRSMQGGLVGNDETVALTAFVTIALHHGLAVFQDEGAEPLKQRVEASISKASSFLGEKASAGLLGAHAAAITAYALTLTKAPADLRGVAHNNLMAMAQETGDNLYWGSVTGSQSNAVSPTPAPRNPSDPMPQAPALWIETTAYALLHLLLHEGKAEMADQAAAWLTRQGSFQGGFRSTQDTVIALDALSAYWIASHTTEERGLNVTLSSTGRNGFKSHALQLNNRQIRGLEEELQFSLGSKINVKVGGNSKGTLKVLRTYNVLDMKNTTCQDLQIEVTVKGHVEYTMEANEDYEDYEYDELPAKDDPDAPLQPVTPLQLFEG

[2] = molecular target: soluble human C3b (human) (UniProt P01024)
[3] = molecular target: T2, human C4b (human) (UniProt P0C0L4)
T2 sequence: T1 sequence with T151A, G317D, L364P, S365C, I368L, H369D, S420N, A451V, R454L, A530S

[4] = molecular target: soluble human C3b (human) (UniProt P01024); remark: listed apart in the source

| Substance | C4b Screen Ref Fold (fold vs CFI-HSA wild type) [1] | iC3b Screen Ref Fold (fold vs CFI-HSA wild type) [2] | C4c EC50 (nM) [3] [nM] | iC3b EC50 [4] [nM] | C4b Screen Ref Fold (fold of CFI-HSA wild type) [1] | iC3b Screen Ref Fold (fold of CFI-HSA wild type) [2] | C4c EC50 [3] [nM] | iC3b Screen Ref Fold (fold of reference) [2] |
| --- | --- | --- | --- | --- | --- | --- | --- | --- |
| CFI-HSA variant K504A (enzyme) | 0.23 | 0.41 | > 1000 | 51.9 |  |  |  |  |
| CFI-HSA variant Y408L; P535G; D425K (enzyme) |  |  |  | 19.7 | 0 | 0.56 | > 1000 |  |
| CFI-HSA variant Q467K (enzyme) | 3.04 | 0.95 | 246 | 18.7 |  |  |  |  |
| CFI-HSA variant F537K (enzyme) | 0.3 | 1.28 | 890 | 40.2 |  |  |  |  |
| CFI-HSA variant E457G; E416A (enzyme) |  |  |  | 7.1 | 4.63 | 1.41 | 94.9 |  |
| CFI-HSA variant E457G; P535G; D425K (enzyme) |  |  |  | 6 | 4.15 | 1.02 | 90 |  |
| CFI-HSA variant A502S (enzyme) | 0.36 | 0.96 | 640 | 26.7 |  |  |  |  |
| CFI-HSA variant N531G; N422K (enzyme) |  |  |  | 5.2 | 4.68 | 2.43 | 42.6 |  |
| CFI-HSA variant E457F (enzyme) | 0.01 | 0.05 | > 1000 | 96.8 |  |  |  |  |
| WT; GGSSGG (SEQ ID NO: 6); CR1(ccp15-17) (enzyme) | 5.25 | 0.04 | 53.1 | 31.9 |  |  |  |  |
| CFI-HSA variant Y408L; N531G; E457G; R462K (enzyme) |  |  |  | 6.9 |  |  | 23 |  |
| CFI-HSA variant D549N (enzyme) |  |  | 168 | 21.9 |  |  |  |  |
| CFI-HSA variant E457G; N531G; D425R; E530Y (enzyme) |  |  | 16.4 | 4.4 |  |  |  |  |
| CFI-HSA variant N531G; E457G; E461Q; R557A (enzyme) |  |  | 25 | 19.1 |  |  |  |  |
| CFI-HSA variant L307S (enzyme) |  |  |  | 18.4 |  |  | 54.1 |  |
| CFI-HSA variant E457G; N531G; E530Y (enzyme) |  |  | 13 | 5 |  |  |  |  |
| CFI-HSA variant R557N (enzyme) |  |  | 154 | 360 |  |  |  |  |
| CFI-HSA variant N531G; E457G; E461Q; R557K (enzyme) |  |  | 23.2 | 8.3 |  |  |  |  |
| CFI-HSA variant R557L (enzyme) |  |  | 177 | 113 |  |  |  |  |
| CFI-HSA variant R557W (enzyme) |  |  | 165 | 198 |  |  |  |  |
| CFI-HSA variant K504D; Y408L; N531G (enzyme) |  |  |  | 20.9 |  |  | 242 |  |
| CFI-HSA variant E457G; N531G; E461Q; R462K; F464Y; E530Y (enzyme) |  |  | 7.8 | 3.5 |  |  |  |  |
| CFI-HSA variant E457G; E461Q; N531G; GGSSGG (SEQ ID NO: 6); CR1 (ccp15-17) (from UniProt P17927) (enzyme) |  |  | 50.3 | 33 |  |  |  |  |
| CFI-HSA variant R557G (enzyme) |  |  | 143 | > 500 |  |  |  |  |
| CFI-HSA variant F464P (enzyme) |  |  |  | > 500 |  |  | > 1000 |  |
| CFI-HSA variant T377G; E461Q (enzyme) |  |  | 28.4 | 6.5 |  |  |  |  |
| CFI-HSA variant D549A (enzyme) |  |  | > 1000 | 32.2 |  |  |  |  |

The next lines start with the values.

| C4b Screen Ref Fold (fold vs CFI-HSA wild type) [1] | iC3b Screen Ref Fold (fold vs CFI-HSA wild type) [2] | C4c EC50 (nM) [3] [nM] | iC3b EC50 [4] [nM] | C4b Screen Ref Fold (fold of CFI-HSA wild type) [1] | iC3b Screen Ref Fold (fold of CFI-HSA wild type) [2] | C4c EC50 [3] [nM] | iC3b Screen Ref Fold (fold of reference) [2] | Substance |
| --- | --- | --- | --- | --- | --- | --- | --- | --- |
| 0.04 | 0.54 | > 1000 | 31.3 |  |  |  |  | CFI-HSA variant E530G; N531G (enzyme) |
| 1.11 | 1 | 510 | 20.2 |  |  |  |  | CFI-HSA variant N518Q (enzyme) |
|  |  |  | 5.2 | 2.13 | 0.04 | 46.5 |  | CFI-HSA variant Y408L; E457G; P535G; D425K (enzyme) |
|  |  |  | 39.6 | 1.03 | 0.71 | 130 |  | CFI-HSA variant F559L; Y563H (enzyme) |
|  |  |  | 13.8 | 1.93 | 0.68 | 158 |  | CFI-HSA variant E457G; P535G (enzyme) |
|  |  |  | 20.8 | 1.21 | 0.87 | 213 |  | CFI-HSA variant P558A (enzyme) |
| 0.09 | 0.51 | 710 | 64.2 |  |  |  |  | CFI-HSA variant Y408N (enzyme) |
|  |  |  | 4.7 | 5.1 | 0.58 | 13.5 |  | CFI-HSA variant Y408L; E457G; N531G; D425K (enzyme) |
| 5.29 | 1.09 | 70.5 | 10.6 |  |  |  |  | CFI-HSA variant Y408L-N531G (enzyme) |
|  |  |  | 14.3 |  |  | 44.4 |  | CFI-HSA variant E457G; N531G; P535G; WT; GGSSGG (SEQ ID NO: 6); CR1(ccp15-17) (enzyme) |
|  |  | 82 | 164 |  |  |  |  | CFI-HSA variant R557M (enzyme) |
|  |  | 145 | 116 |  |  |  |  | CFI-HSA variant R557Y (enzyme) |
|  |  | 54.5 | 51.6 |  |  |  |  | CFI-HSA variant Y408L; N531G; R557A (enzyme) |
|  |  |  | 7.7 |  |  | 17.3 |  | CFI-HSA variant N531G; E457G; R462K (enzyme) |
|  |  | 324 | 217 |  |  |  |  | CFI-HSA variant R557T (enzyme) |
|  |  | 52.2 | 17 |  |  |  |  | CFI-HSA variant N531G; P535A; R557K (enzyme) |
|  |  |  | 21.6 |  |  | 42.3 |  | CFI-HSA variant E457G; WT; GGSSGG (SEQ ID NO: 6); CR1(ccp15-17) (enzyme) |
|  |  | > 1000 | 53.1 |  |  |  | 0.17 | CFI-HSA variant K504D (enzyme) |
|  |  | 61.8 | 36.6 |  |  |  |  | CFI-HSA variant E457G; E461Q; R557A (enzyme) |
|  |  | 111 | 131 |  |  |  |  | CFI-HSA variant Y408L; E457G; E461Q; R462K; N531G; ΔC-term (Δ558-PFISQYNV (SEQ ID NO: 14)-565) (enzyme) |
|  |  |  | 19.4 |  |  | 120 |  | CFI-HSA variant K504E; Y408L; N531G (enzyme) |
